Data reported in the Human Domainome abundance scans (Beltran et al. 2025).
± gives the uncertainty stated by the source.

B1: Chromodomain-helicase-DNA-binding protein 7, residues 2564 to 2605; numbered along this chain, Q9P2D1 (parent)
chain: DPDTRIPVINLEDGTRLVGEDAPKNKDLVEWLKLHPTYTVDM

Variants of: B1
Experiment: abundance fitness (aPCA) (normalised: wild type 0, dead -1); higher = more abundant; growth selection in yeast, the domain comes from the species named
Settings: Homo sapiens

With DPDTRIPVINLEDGTRLVGEDAPKNKDLVEWLKLHPTYTQDM as the variant, how does the abundance fitness read?
The abundance fitness was -0.108 ± 0.097.

Which abundance fitness does the source give for DPDTRIPVINLEDGTRLVGEDAPKNKDLVEWLKLHPTYTNDM here?
Its abundance fitness is -0.341 ± 0.071.

With DPDTRIPVINLEDGTRLVGEDAPKNKDLVEWLKLHPTYTLDM as the variant, how does the abundance fitness read?
The abundance fitness was -0.381 ± 0.048.

For DPDTRIPVINLEDGTRLVGEDAPKNKDLVEWLKLHPTYTMDM, which abundance fitness is on record?
The abundance fitness was -0.379 ± 0.083.

Which abundance fitness does the source give for DPDTRIPVINLEDGTRLVGEDAPKNKDLVEWLKLHPTYTIDM here?
The abundance fitness was -0.135 ± 0.071.

Which abundance fitness does the source give for DPDTRIPVINLEDGTRLVGEDAPKNKDLVEWLKLHPTYTHDM here?
The abundance fitness was -0.372 ± 0.074.

For DPDTRIPVINLEDGTRLVGEDAPKNKDLVEWLKLHPTYTRDM, which abundance fitness is on record?
The abundance fitness was -0.065 ± 0.047.

Which abundance fitness does the source give for DPDTRIPVINLEDGTRLVGEDAPKNKDLVEWLKLHPTYTADM here?
Its abundance fitness is 0.135 ± 0.1.

Which abundance fitness does the source give for DPDTRIPVINLEDGTRLVGEDAPKNKDLVEWLKLHPTYTDDM here?
Its abundance fitness is -0.295 ± 0.07.

Which abundance fitness does the source give for DPDTRIPVINLEDGTRLVGEDAPKNKDLVEWLKLHPTYNVDM here?
Its abundance fitness is -0.162 ± 0.064.

For DPDTRIPVINLEDGTRLVGEDAPKNKDLVEWLKLHPTYKVDM, which abundance fitness is on record?
The abundance fitness was 0.076 ± 0.063.

With DPDTRIPVINLEDGTRLVGEDAPKNKDLVEWLKLHPTYFVDM as the variant, how does the abundance fitness read?
The abundance fitness was -0.639 ± 0.11.

With DPDTRIPVINLEDGTRLVGEDAPKNKDLVEWLKLHPTYWVDM as the variant, how does the abundance fitness read?
The abundance fitness was -0.835 ± 0.12.

Which abundance fitness does the source give for DPDTRIPVINLEDGTRLVGEDAPKNKDLVEWLKLHPTYPVDM here?
Its abundance fitness is -0.771 ± 0.11.

Which abundance fitness does the source give for DPDTRIPVINLEDGTRLVGEDAPKNKDLVEWLKLHPTYAVDM here?
Its abundance fitness is -0.279 ± 0.1.

For DPDTRIPVINLEDGTRLVGEDAPKNKDLVEWLKLHPTYSVDM, which abundance fitness is on record?
The abundance fitness was -0.038 ± 0.072.

With DPDTRIPVINLEDGTRLVGEDAPKNKDLVEWLKLHPTYQVDM as the variant, how does the abundance fitness read?
Its abundance fitness is 0.006 ± 0.065.

With DPDTRIPVINLEDGTRLVGEDAPKNKDLVEWLKLHPTYGVDM as the variant, how does the abundance fitness read?
The abundance fitness was -0.295 ± 0.06.

For DPDTRIPVINLEDGTRLVGEDAPKNKDLVEWLKLHPTYMVDM, which abundance fitness is on record?
Its abundance fitness is -0.382 ± 0.11.

For DPDTRIPVINLEDGTRLVGEDAPKNKDLVEWLKLHPTYCVDM, which abundance fitness is on record?
Its abundance fitness is -0.212 ± 0.064.

Which abundance fitness does the source give for DPDTRIPVINLEDGTRLVGEDAPKNKDLVEWLKLHPTYVVDM here?
The abundance fitness was -0.004 ± 0.063.

For DPDTRIPVINLEDGTRLVGEDAPKNKDLVEWLKLHPTYRVDM, which abundance fitness is on record?
Its abundance fitness is 0.002 ± 0.06.

For DPDTRIPVINLEDGTRLVGEDAPKNKDLVEWLKLHPTYHVDM, which abundance fitness is on record?
The abundance fitness was -0.186 ± 0.056.

For DPDTRIPVINLEDGTRLVGEDAPKNKDLVEWLKLHPTYYVDM, which abundance fitness is on record?
Its abundance fitness is -0.347 ± 0.078.

With DPDTRIPVINLEDGTRLVGEDAPKNKDLVEWLKLHPTYEVDM as the variant, how does the abundance fitness read?
The abundance fitness was 0.046 ± 0.078.

For DPDTRIPVINLEDGTRLVGEDAPKNKDLVEWLKLHPTYLVDM, which abundance fitness is on record?
Its abundance fitness is -0.42 ± 0.056.

For DPDTRIPVINLEDGTRLVGEDAPKNKDLVEWLKLHPTYIVDM, which abundance fitness is on record?
Its abundance fitness is -0.158 ± 0.064.

With DPDTRIPVINLEDGTRLVGEDAPKNKDLVEWLKLHPTYTVKM as the variant, how does the abundance fitness read?
The abundance fitness was -1.14 ± 0.35.

With DPDTRIPVINLEDGTRLVGEDAPKNKDLVEWLKLHPTYTVTM as the variant, how does the abundance fitness read?
The abundance fitness was -0.586 ± 0.063.

With DPDTRIPVINLEDGTRLVGEDAPKNKDLVEWLKLHPTYTVCM as the variant, how does the abundance fitness read?
The abundance fitness was -0.531 ± 0.067.

For DPDTRIPVINLEDGTRLVGEDAPKNKDLVEWLKLHPTYTVWM, which abundance fitness is on record?
Its abundance fitness is -0.84 ± 0.2.

For DPDTRIPVINLEDGTRLVGEDAPKNKDLVEWLKLHPTYTVAM, which abundance fitness is on record?
The abundance fitness was -0.396 ± 0.064.

With DPDTRIPVINLEDGTRLVGEDAPKNKDLVEWLKLHPTYTVSM as the variant, how does the abundance fitness read?
Its abundance fitness is -0.438 ± 0.057.

With DPDTRIPVINLEDGTRLVGEDAPKNKDLVEWLKLHPTYTVGM as the variant, how does the abundance fitness read?
The abundance fitness was -0.335 ± 0.051.

With DPDTRIPVINLEDGTRLVGEDAPKNKDLVEWLKLHPTYTVEM as the variant, how does the abundance fitness read?
Its abundance fitness is -0.179 ± 0.079.

With DPDTRIPVINLEDGTRLVGEDAPKNKDLVEWLKLHPTYTVIM as the variant, how does the abundance fitness read?
Its abundance fitness is -0.871 ± 0.097.

With DPDTRIPVINLEDGTRLVGEDAPKNKDLVEWLKLHPTYTVQM as the variant, how does the abundance fitness read?
The abundance fitness was -0.422 ± 0.48.

For DPDTRIPVINLEDGTRLVGEDAPKNKDLVEWLKLHPTYTVRM, which abundance fitness is on record?
The abundance fitness was -0.841 ± 0.058.

Which abundance fitness does the source give for DPDTRIPVINLEDGTRLVGEDAPKNKDLVEWLKLHPTYTVMM here?
Its abundance fitness is -0.531 ± 0.072.

Which abundance fitness does the source give for DPDTRIPVINLEDGTRLVGEDAPKNKDLVEWLKLHPTYTVHM here?
Its abundance fitness is -0.364 ± 0.092.

For DPDTRIPVINLEDGTRLVGEDAPKNKDLVEWLKLHPTYTVNM, which abundance fitness is on record?
Its abundance fitness is -0.343 ± 0.058.

With DPDTRIPVINLEDGTRLVGEDAPKNKDLVEWLKLHPTYTVVM as the variant, how does the abundance fitness read?
The abundance fitness was -0.793 ± 0.055.

With DPDTRIPVINLEDGTRLVGEDAPKNKDLVEWLKLHPTYTVLM as the variant, how does the abundance fitness read?
The abundance fitness was -0.594 ± 0.053.

With DPDTRIPVINLEDGTRLVGEDAPKNKDLVEWLKLHPTYTVPM as the variant, how does the abundance fitness read?
The abundance fitness was -0.453 ± 0.12.

For DPDTRIPVINLEDGTRLVGEDAPKNKDLVEWLKLHPTRTVDM, which abundance fitness is on record?
The abundance fitness was -0.449 ± 0.064.

With DPDTRIPVINLEDGTRLVGEDAPKNKDLVEWLKLHPTTTVDM as the variant, how does the abundance fitness read?
Its abundance fitness is -0.331 ± 0.079.

Which abundance fitness does the source give for DPDTRIPVINLEDGTRLVGEDAPKNKDLVEWLKLHPTLTVDM here?
Its abundance fitness is -0.632 ± 0.082.

With DPDTRIPVINLEDGTRLVGEDAPKNKDLVEWLKLHPTETVDM as the variant, how does the abundance fitness read?
Its abundance fitness is -0.387 ± 0.073.

With DPDTRIPVINLEDGTRLVGEDAPKNKDLVEWLKLHPTHTVDM as the variant, how does the abundance fitness read?
The abundance fitness was -0.216 ± 0.061.

Which abundance fitness does the source give for DPDTRIPVINLEDGTRLVGEDAPKNKDLVEWLKLHPTVTVDM here?
Its abundance fitness is -0.652 ± 0.082.

Which abundance fitness does the source give for DPDTRIPVINLEDGTRLVGEDAPKNKDLVEWLKLHPTWTVDM here?
Its abundance fitness is 0.085 ± 0.12.

With DPDTRIPVINLEDGTRLVGEDAPKNKDLVEWLKLHPTDTVDM as the variant, how does the abundance fitness read?
Its abundance fitness is -0.278 ± 0.078.

Which abundance fitness does the source give for DPDTRIPVINLEDGTRLVGEDAPKNKDLVEWLKLHPTATVDM here?
The abundance fitness was -0.447 ± 0.082.

For DPDTRIPVINLEDGTRLVGEDAPKNKDLVEWLKLHPTNTVDM, which abundance fitness is on record?
Its abundance fitness is -0.459 ± 0.073.

Which abundance fitness does the source give for DPDTRIPVINLEDGTRLVGEDAPKNKDLVEWLKLHPTCTVDM here?
The abundance fitness was -0.445 ± 0.057.

For DPDTRIPVINLEDGTRLVGEDAPKNKDLVEWLKLHPTKTVDM, which abundance fitness is on record?
Its abundance fitness is -0.321 ± 0.11.

With DPDTRIPVINLEDGTRLVGEDAPKNKDLVEWLKLHPTPTVDM as the variant, how does the abundance fitness read?
The abundance fitness was -0.916 ± 0.46.

With DPDTRIPVINLEDGTRLVGEDAPKNKDLVEWLKLHPTGTVDM as the variant, how does the abundance fitness read?
The abundance fitness was -0.327 ± 0.05.

For DPDTRIPVINLEDGTRLVGEDAPKNKDLVEWLKLHPTFTVDM, which abundance fitness is on record?
Its abundance fitness is -0.128 ± 0.059.

Which abundance fitness does the source give for DPDTRIPVINLEDGTRLVGEDAPKNKDLVEWLKLHPTSTVDM here?
Its abundance fitness is -0.297 ± 0.076.

For DPDTRIPVINLEDGTRLVGEDAPKNKDLVEWLKLHPTITVDM, which abundance fitness is on record?
The abundance fitness was -1.02 ± 0.099.
